Source: patent US20250011456A1, “ANTIBODIES AGAINST CD14 AND USES THEREOF” (Villanelle Life Science Inc, priority 2023, published 2025)

Molecular target: T1, human CD14 antigen (B294801, histidine tagged) (Homo sapiens, UniProt P08571)
T1 construct: His; purchased Shanghai BaiYing Biotechnology Co., Ltd B294801 (Batch number 20200518A22)
T1 sequence (P08571 20-345): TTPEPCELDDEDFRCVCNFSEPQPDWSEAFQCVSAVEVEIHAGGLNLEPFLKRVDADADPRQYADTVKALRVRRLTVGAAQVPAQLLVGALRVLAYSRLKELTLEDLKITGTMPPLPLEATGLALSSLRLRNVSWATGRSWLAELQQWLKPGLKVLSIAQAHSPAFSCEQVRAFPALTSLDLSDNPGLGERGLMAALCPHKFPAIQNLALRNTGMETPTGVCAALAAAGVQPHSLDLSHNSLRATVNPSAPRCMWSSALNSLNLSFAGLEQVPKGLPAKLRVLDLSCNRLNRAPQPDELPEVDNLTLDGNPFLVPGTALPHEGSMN
Test: Biacore 8K kinetic and affinity test of antibodies without PTM sites (Example 9)
Format: binding
Conditions: Biacore 8K, analyte B294801 0.1953125-25 nM, capture conc. 1 μg/mL
Method: Experimental reagents and consumables included cell culture fluid, electroporation buffer, CHO cells, 1 mL electroporation cuvette, Protein A chip (Cytiva, 29127556), various sizes of shake flasks, and various sizes of pipettes. Main instruments and equipment included a shaker (Taicang Huamei), centrifuge (Baiyang), ultrapure water system (Millipore), constant temperature incubator (BLUE PARD), electroporator, water bath, Biacore 8K (Cytiva), and ELISA system (Molecular Devices).
The antigen used for the binding affinity measurements is B294801. This antigen is a human CD14 antigen that is histidine tagged. D6DD3D001 is a mouse antibody, and MPDDAD001-MPDDAD005 are humanized antibodies. The antibodies are recombinant, human (hFc Tag). Selected parameters of the experimental samples are shown in Table 9-1, with MW referring to molecular weight in kDa.
The Biacore 8K platform was used to test the kinetic and affinity properties of the antibody, operating according to system instructions and indications.
Results of Affinity Detection. The affinity of the six antibodies was measured at saturation concentration. For the experiments, the analyte solution comprises the B294801 antigen with an analyte concentration of 0.1953125 nM, 0.390625 nM, 0.78125 nM, 1.5625 nM, 3.125 nM, 6.25 nM, 12.5 nM, and 25 nM. Change factor is described above.

B1: D6DD3D001: mouse-derived anti-CD14 IgG1 antibody; VH SEQ ID NO: 1, VL SEQ ID NO: 3, heavy chain SEQ ID NO: 2, light chain SEQ ID NO: 4 (antibody)
heavy: DVQLQQSGPGLVKPSQSLSLTCTVTGYSITSDSAWNWIRQFPGNRLEWMGYISYSGSTSYNPSLKSRISITRDTSKNQFFLQLNSVTTEDTATYYCVRGLRFAYWGQGTLVTVSSPSVFLFPPKPKDTLMISRTPEVTCVVVDVSHEDPEVKFNWYVDGVEVHNAKTKPREEQYNSTYRVVSVLTVLHQDWLNGKEYKCKVSNKALPAPIEKTISKAKGQPREPQVYTLPPSREEMTKNQVSLTCLVKGFYPSDIAVEWESNGQPENNYKTTPPVLDSDGSFFLYSKLTVDKSRWQQGNVFSCSVMHEALHNHYTQKSLSLSPGK
light: DIVLTQSPASLAVSLGQRATISCRASESVDSYVNSFLHWYQQKPGQPPKLLIYRASNLQSGIPARFSGSGSRTDFTLTINPVEADDVATYYCQQSNEDPYTFGGGTKLEIKRTVAAPSVFIFPPSDEQLKSGTASVVCLLNNFYPREAKVQWKVDNALQSGNSQESVTEQDSKDSTYSLSSTLTLSKADYEKHKVYACEVTHQGLSSPVTKSFNRGEC
- Koff: 0.00108 s⁻¹
- kon (1:1 binding): 1.25e+06 M⁻¹ s⁻¹
